The values below come from PMC3458112, “The VP3 Factor from Viruses of Birnaviridae Family Suppresses RNA Silencing by Binding Both Long and Small RNA Duplexes” (PLoS ONE, 2012).

Experiment in all cases: SEC; analytical gel filtration of affinity-purified 6xHis-tagged VP3s, Superdex-200 5/150 calibrated with catalase, serum albumin, ovoalbumine and chymotrypsinogen A; 20 mM Tris-HCl pH 7.5, 150 mM NaCl, 4°C, 0.5 ml/min
On the technique in general: SEC sorts molecules by how far they enter the pores of the column.

The target in data set [1] is 6xHis-tagged IBDV VP3 Patch1 mutant (K99D, R102D, K105D, K106D) (Infectious bursal disease virus (IBDV)).
Data set [2] deals with 6xHis-tagged IBDV VP3 Patch2 mutant (R159D, R168D, H198D, R200D) (Infectious bursal disease virus (IBDV)).
Data set [3] concerns the molecule itself.

For the molecule “6xHis-tagged IBDV VP3 Patch1 mutant (K99D, R102D, K105D, K106D) (natural protein)”, in data set [1], the stoichiometry N was 2. As for “6xHis-tagged IBDV VP3 Patch2 mutant (R159D, R168D, H198D, R200D) (natural protein)”, the stoichiometry N in data set [2] came to 2.

B1: 6xHis-tagged full-length IBDV VP3 (wild type) (natural protein)
chain: ASEFKETPELESAVRAMEAAANVDPLFQSALSVFMWLEENGIVTDMANFALSDPNAHRMRNFLANAPQAGSKSQRAKYGTAGYGVEARGPTPEEAQREKDTRISKKMETMGIYFATPEWVALNGHRGPSPGQVKYWQNKREIPDPNEDYLDYVHAEKSRLASEEQILRAATSIYGAPGQAEPPQAFIDEVAKVYEINHGRGPNQEQMKDLLLTAMEMKHRNPRRALPKPKPKPNAPTQRPPGRLGRWIRTVSDEDLE
notes: VP3 of Infectious bursal disease virus (IBDV), the cut product of the viral polyprotein (pVP2-VP4-VP3); numbers count on: the VP3 polypeptide itself (C-terminal region printed as 222-258), not the polyprotein; also called VP3 WT; wild type IBDV VP3
Take B1: the “stoichiometry N” value in data set [3] was found to be 2.

For orientation: stoichiometry N means the number of molecules, sites or subunits per partner or assembly.
